Earlier results as cited in article PMC9414616.

Target: NTSR2 (UniProt O95665)
Chain of UniProt O95665 (O95665 whole entry): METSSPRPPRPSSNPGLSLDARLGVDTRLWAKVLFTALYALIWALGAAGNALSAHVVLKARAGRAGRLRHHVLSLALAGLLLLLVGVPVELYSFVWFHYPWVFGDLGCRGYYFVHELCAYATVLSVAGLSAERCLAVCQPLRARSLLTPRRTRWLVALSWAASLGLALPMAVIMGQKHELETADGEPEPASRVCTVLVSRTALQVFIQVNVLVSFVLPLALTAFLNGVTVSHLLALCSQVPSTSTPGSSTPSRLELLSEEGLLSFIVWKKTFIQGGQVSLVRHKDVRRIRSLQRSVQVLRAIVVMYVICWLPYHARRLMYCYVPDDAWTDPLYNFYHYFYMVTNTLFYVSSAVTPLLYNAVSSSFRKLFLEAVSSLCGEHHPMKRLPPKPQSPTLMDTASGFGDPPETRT

- Kd: 4 nM
Substance: neurotensin (from UniProt P30990)
